Like-named read-outs stand apart in the source and are kept apart here.
What was measured:
[1] = target: T1, human Claudin 18.2 (hCLDN18.2) (human, UniProt P56856-2 1-261); test: cell-based or functional assay
[2] = target: murine CLDN18.2 (mCLDN18.2) (murine) (UniProt P56857); test: FACS, HEK293-mCLDN18.2 cells
[3] = target: T1, human Claudin 18.2 (hCLDN18.2); test: FACS, PDX-hCLDN18.2 gastric cancer tumor tissue-derived cells
[4] = target: T1, human Claudin 18.2 (hCLDN18.2); test: FACS, HEK293-hCLDN18.2 cells
[5] = target: T1, human Claudin 18.2 (hCLDN18.2); test: FACS, HEK293-hCLDN18.2 cells
Procedure: (§1) Using flow cytometry measurement, the mean fluorescence intensity (hereinafter referred to as MFI) for each concentration was calculated by the software, and then the half binding concentration (EC₅₀) and the mean maximum fluorescence intensity (Top MFI) were calculated by GraphPad software, and the results were shown in Table 11.

[6] = target: T1, human Claudin 18.2 (hCLDN18.2); test: cell-based or functional assay; remark: listed apart in the source
[7] = target: T1, human Claudin 18.2 (hCLDN18.2); test: FACS, PDX-hCLDN18.2 gastric cancer tumor tissue-derived cells
Procedure: as §1

[8] = target: T1, human Claudin 18.2 (hCLDN18.2); test: cell-based or functional assay; remark: listed apart in the source
[9] = target: T1, human Claudin 18.2 (hCLDN18.2); test: FACS, HEK293-hCLDN18.2 cells; remark: listed apart in the source
Procedure: Following transient expression in mammalian cell lines, affinity assays were performed using HEK293-hCLDN18.2 cells and monoclonal cell supernatants were screened by FACS.

Binder | EC50 [2] | Mean maximum fluorescence intensity (Top MFI) [2] | EC50 [5] | Mean maximum fluorescence intensity (Top MFI) [5] | CDC EC50 [6] | CDC Maximum lysis (%) [6] | EC50 [7] | Mean maximum fluorescence intensity (Top MFI) [7] | ADCC EC50 [8] | ADCC Maximum lysis (%) [8] | EC50 [9] | Mean maximum fluorescence intensity (Top MFI) [9] | also measured
hu253C4-N31Q-1 (antibody, V domains shown) VH: QVQLVQSGAEVKKPGASVKVSCKASGYIFTSYWIHWVRQAPGQGLEWMGRFYPGTGTAYYNENFEGRVTMTRDTSISTAYMELSRLRSDDTAVYYCAREGYGKGNSMDYWGQGTTVTVSS VL: DIVMTQSPDSLAVSLGERATINCKSSQSLLQSGNQKNYLTWYQQKPGQPPKLLIYWASTRESGVPDRFSGSGSGTDFTLTISSLQAEDVAVYYCQNDYYFPFTFGGGTKLEIK | 0.19 µg/mL | 65000 MFI | – | – | – | – | – | – | – | – | – | – | ADCC EC50 [1]: 0.024 µg/mL; ADCC Maximum lysis (%) [1]: 54.9%; CDC EC50 [1]: 0.175 µg/mL; CDC Maximum lysis (%) [1]: 96.3%; EC50 [3]: 12 nM; Mean maximum fluorescence intensity (Top MFI) [3]: 16300 MFI; EC50 [4]: 0.216 nM; Mean maximum fluorescence intensity (Top MFI) [4]: 23000 MFI
hu299B2-S32A-1 (antibody, V domains shown, also called humanized antibody hu299B2-S32A) VH: QVQLVQSGAEVKKPGASVKVSCKASGYIFTNYWIHWVRQAPGQGLEWMGRIYPGTGNTYYNEKFTGRVTMTRDTSTSTVYMELSSLRSEDTAVYYCAREGYGKGNSMDYWGQGTTVTVSS VL: DIVMTQSPDSLAVSLGERATINCKSSQSLLNAGNQKNYLTWYQQKPGQPPKLLIYWASTRESGVPDRFSGSGSGTDFTLTISSLQAEDVAVYYCQNAYYYPYTFGGGTKLEIK | 0.201 µg/mL | 88800 MFI | 0.407 nM | 29500 MFI | 0.125 µg/mL | 99.2% | 29.7 nM | 25200 MFI | 0.022 µg/mL | 57.9% | – | – | –
hu299B2-S32A-4 (antibody, V domains shown, also called humanized antibody hu299B2-S32A) VH: QVQLVQSGAEVKKPGASVKVSCKTSGYIFTNYWIHWVRQAPGQGLEWMGRIYPGTGNTYYNEKFTGRVTLTADTSTSTVYMELSSLRSEDTAVYYCSREGYGKGNSMDYWGQGTTVTVSS VL: DIVMTQSPDSLAVSLGERATINCKSSQSLLNAGNQKNYLTWYQQKPGQPPKLLIYWASTRESGVPDRFSGSGSGTDFTLTISSLQAEDVAVYYCQNAYYYPYTFGGGTKLEIK | 0.281 µg/mL | 84900 MFI | 0.318 nM | 31200 MFI | 0.123 µg/mL | 99.9% | 29.3 nM | 23000 MFI | 0.024 µg/mL | 63.2% | – | – | –
ch-253C4-G33A (antibody, V domains shown, also called chimeric antibody of 253C4-G33A) VH: QVQLKQSGAELVRPGASVSLSCKTSGYIFTSYWIHWVKQRSGQGLEWIGRFYPGTGTAYYNENFEGKATLTADRSSSTAYMQLSSLKSDDSAVYFCTREGYGKGNAMDYWGQGTSVTVSS VL: DIVMTQSPSSLTVTTGEKVTLSCKSSQSLLNSANQKNYLTWYQQKSGQPPELLIYWASTRESGVPDRFTGSGSGTDFTLTVSSVQAEDLAVYYCQNDYYFPFTFGGGTKLEIK | – | – | – | – | – | – | – | – | – | – | 0.187 µg/mL | 6840 MFI | –
ch-253C4-S32A (antibody, V domains shown, also called chimeric antibody of 253C4-S32A) VH: QVQLKQSGAELVRPGASVSLSCKTSGYIFTSYWIHWVKQRSGQGLEWIGRFYPGTGTAYYNENFEGKATLTADRSSSTAYMQLSSLKSDDSAVYFCTREGYGKGNAMDYWGQGTSVTVSS VL: DIVMTQSPSSLTVTTGEKVTLSCKSSQSLLNAGNQKNYLTWYQQKSGQPPELLIYWASTRESGVPDRFTGSGSGTDFTLTVSSVQAEDLAVYYCQNDYYFPFTFGGGTKLEIK | – | – | – | – | – | – | – | – | – | – | 0.207 µg/mL | 6890 MFI | –
ch-299B2-G33A (antibody, V domains shown, also called chimeric antibody of 299B2-G33A) VH: QVQLKQSGPELVRPGASVKLSCKTSGYIFTNYWIHWVKQRSGQGLEWVVRIYPGTGNTYYNEKFTGKATLTADKSSSTAYMQLSSLKYEDSAVYFCSREGYGKGNSMDYWGQGTSVTVSS VL: DIVMTQSPSSLTVTAGEKVTMNCKSSQSLLNSANQKNYLTWYQQKPGQPPKLLFYWASTRESGVPDRFTGSGSGTDFTLTISSVQAEDLAVYHCQNAYYYPYTFGGGTKLEMK | – | – | – | – | – | – | – | – | – | – | 0.157 µg/mL | 6870 MFI | –
ch-299B2-S32A (antibody, V domains shown, also called chimeric antibody of 299B2-S32A) VH: QVQLKQSGPELVRPGASVKLSCKTSGYIFTNYWIHWVKQRSGQGLEWVVRIYPGTGNTYYNEKFTGKATLTADKSSSTAYMQLSSLKYEDSAVYFCSREGYGKGNSMDYWGQGTSVTVSS VL: DIVMTQSPSSLTVTAGEKVTMNCKSSQSLLNAGNQKNYLTWYQQKPGQPPKLLFYWASTRESGVPDRFTGSGSGTDFTLTISSVQAEDLAVYHCQNAYYYPYTFGGGTKLEMK | – | – | – | – | – | – | – | – | – | – | 1.31 µg/mL | 6500 MFI | –
ch-299B2-N31Q (antibody, V domains shown, Light chain variable region mutant N31Q of 299B2; also called ch-299B2-X31Q; chimeric antibody of 299B2-N31Q) VH: QVQLKQSGPELVRPGASVKLSCKTSGYIFTNYWIHWVKQRSGQGLEWVVRIYPGTGNTYYNEKFTGKATLTADKSSSTAYMQLSSLKYEDSAVYFCSREGYGKGNSMDYWGQGTSVTVSS VL: DIVMTQSPSSLTVTAGEKVTMNCKSSQSLLQSGNQKNYLTWYQQKPGQPPKLLFYWASTRESGVPDRFTGSGSGTDFTLTISSVQAEDLAVYHCQNAYYYPYTFGGGTKLEMK | – | – | – | – | – | – | – | – | – | – | – | – | binding result [9]: binds

Now from value to binder, other results behind:

EC50 [2] | Mean maximum fluorescence intensity (Top MFI) [2] | EC50 [5] | Mean maximum fluorescence intensity (Top MFI) [5] | CDC EC50 [6] | CDC Maximum lysis (%) [6] | EC50 [7] | Mean maximum fluorescence intensity (Top MFI) [7] | ADCC EC50 [8] | ADCC Maximum lysis (%) [8] | EC50 [9] | Mean maximum fluorescence intensity (Top MFI) [9] | Binder | also measured
0.03 µg/mL | 42100 MFI | – | – | – | – | – | – | – | – | – | – | hu253C4-N31Q-3 (antibody, V domains shown) VH: QVQLVQSGAEVKKPGASVKVSCKTSGYIFTSYWIHWVRQAPGQGLEWMGRFYPGTGTAYYNENFEGRVTLTADTSISTAYMELSRLRSDDTAVYYCTREGYGKGNSMDYWGQGTTVTVSS VL: DIVMTQSPDSLAVSLGERATINCKSSQSLLQSGNQKNYLTWYQQKPGQPPKLLIYWASTRESGVPDRFSGSGSGTDFTLTISSLQAEDVAVYYCQNDYYFPFTFGGGTKLEIK | ADCC EC50 [1]: 0.038 µg/mL; ADCC Maximum lysis (%) [1]: 70.3%; CDC EC50 [1]: 0.128 µg/mL; CDC Maximum lysis (%) [1]: 96.1%; EC50 [3]: 25.6 nM; Mean maximum fluorescence intensity (Top MFI) [3]: 21600 MFI; EC50 [4]: 0.145 nM; Mean maximum fluorescence intensity (Top MFI) [4]: 18800 MFI
0.026 µg/mL | 36800 MFI | – | – | – | – | – | – | – | – | – | – | hu253C4-N31Q-2 (antibody, V domains shown) VH: QVQLVQSGAEVKKPGASVKVSCKASGYIFTSYWIHWVRQAPGQGLEWMGRFYPGTGTAYYNENFEGRVTMTRDTSISTAYMELSRLRSDDTAVYYCAREGYGKGNSMDYWGQGTTVTVSS VL: DIVMTQSPDSLAVSLGERVTLNCKSSQSLLQSGNQKNYLTWYQQKPGQPPKLLIYWASTRESGVPDRFSGSGSGTDFTLTVSSVQAEDVAVYYCQNDYYFPFTFGGGTKLEIK | ADCC EC50 [1]: 0.037 µg/mL; ADCC Maximum lysis (%) [1]: 58.8%; CDC EC50 [1]: 0.149 µg/mL; CDC Maximum lysis (%) [1]: 97.5%; EC50 [3]: 11.4 nM; Mean maximum fluorescence intensity (Top MFI) [3]: 15600 MFI; EC50 [4]: 0.361 nM; Mean maximum fluorescence intensity (Top MFI) [4]: 29000 MFI
0.111 µg/mL | 90400 MFI | 0.463 nM | 36700 MFI | 0.129 µg/mL | 99.7% | 24.6 nM | 22900 MFI | 0.028 µg/mL | 68.1% | – | – | hu299B2-S32A-2 (antibody, V domains shown, also called humanized antibody hu299B2-S32A) VH: QVQLVQSGAEVKKPGASVKVSCKASGYIFTNYWIHWVRQAPGQGLEWMGRIYPGTGNTYYNEKFTGRVTMTRDTSTSTVYMELSSLRSEDTAVYYCAREGYGKGNSMDYWGQGTTVTVSS VL: DIVMTQSPDSLAVSLGERATMNCKSSQSLLNAGNQKNYLTWYQQKPGQPPKLLFYWASTRESGVPDRFSGSGSGTDFTLTISSLQAEDVAVYHCQNAYYYPYTFGGGTKLEIK | –
0.342 µg/mL | 103000 MFI | 0.399 nM | 40000 MFI | 0.092 µg/mL | 99.8% | 26.1 nM | 24300 MFI | 0.022 µg/mL | 69.1% | – | – | hu299B2-S32A-3 (antibody, V domains shown, also called humanized antibody hu299B2-S32A) VH: QVQLVQSGAEVKKPGASVKVSCKASGYIFTNYWIHWVRQAPGQGLEWMGRIYPGTGNTYYNEKFTGRVTMTRDTSTSTVYMELSSLRSEDTAVYYCAREGYGKGNSMDYWGQGTTVTVSS VL: DIVMTQSPDSLAVSLGERVTMNCKSSQSLLNAGNQKNYLTWYQQKPGQPPKLLFYWASTRESGVPDRFSGSGSGTDFTLTISSVQAEDVAVYHCQNAYYYPYTFGGGTKLEIK | –
– | – | – | – | – | – | – | – | – | – | 0.175 µg/mL | 6560 MFI | ch-253C4-N31Q (antibody, V domains shown, also called chimeric antibody of 253C4-N31Q) VH: QVQLKQSGAELVRPGASVSLSCKTSGYIFTSYWIHWVKQRSGQGLEWIGRFYPGTGTAYYNENFEGKATLTADRSSSTAYMQLSSLKSDDSAVYFCTREGYGKGNAMDYWGQGTSVTVSS VL: DIVMTQSPSSLTVTTGEKVTLSCKSSQSLLQSGNQKNYLTWYQQKSGQPPELLIYWASTRESGVPDRFTGSGSGTDFTLTVSSVQAEDLAVYYCQNDYYFPFTFGGGTKLEIK | –

Source: patent US20220411492A1 (QILU PHARMACEUTICAL, published 2022)
